Assay results taken from PMC10702477.

Key:
[1] = substrate: Cc1cc(=O)oc2cc(O)cc(O)c12; test: RP-HPLC product/acceptor peak ratio, Michaelis-Menten fit; assay type: biochemical, Arabidopsis thaliana; settings: 500 μM UDP-Glc, 50 mM TBT buffer at optimal pH, 293 K; product 5-O-Glc; 20.0 °C
[2] = substrate: O=c1cc(-c2ccccc2)c2c(O)cc(O)cc2o1; test: as above; assay type: biochemical, Arabidopsis thaliana; settings: 500 μM UDP-Glc, 50 mM TBT buffer at optimal pH, 293 K; product 7-O-Glc; 20.0 °C

B1: AtUGT78D2 (Arabidopsis thaliana) (protein)
chain: MTKPSDPTRDSHVAVLAFPFGTHAAPLLTVTRRLASASPSTVFSFFNTAQSNSSLFSSGDEADRPANIRVYDIADGVPEGYVFSGRPQEAIELFLQAAPENFRREIAKAETEVGTEVKCLMTDAFFWFAADMATEINASWIAFWTAGANSLSAHLYTDLIRETIGVKEVGERMEETIGVISGMEKIRVKDTPEGVVFGNLDSVFSKMLHQMGLALPRATAVFINSFEDLDPTLTNNLRSRFKRYLNIGPLGLLSSTLQQLVQDPHGCLAWMEKRSSGSVAYISFGTVMTPPPGELAAIAEGLESSKVPFVWSLKEKSLVQLPKGFLDRTREQGIVVPWAPQVELLKHEATGVFVTHCGWNSVLESVSGGVPMICRPFFGDQRLNGRAVEVVWEIGMTIINGVFTKDGFEKCLDKVLVQDDGKKMKCNAKKLKELAYEAVSSKGRSSENFRGLLDAVVNII
[1]
  Km: 34.4 ± 4.3 µM
  kcat: 0.932 ± 0.04 s⁻¹
[2]
  Km: 28.9 ± 4.8 µM
  kcat: 0.132 ± 0.00667 s⁻¹
